Experimental data published in paper PMC11705640, “Tubulointerstitial nephritis antigen-like 1 promotes the progression of liver fibrosis after HCV eradication with direct-acting antivirals” (International Journal of Biological Sciences, 2025).

Biological target: T1, recombinant human TINAGL1 protein (tubulointerstitial nephritis antigen-like 1), C-6×His (human, UniProt Q9GZM7 22-467)
T1 construct: tubulointerstitial nephritis antigen-like 1 (TINAGL1), human, recombinant; Bought protein; Held on the Ni-NTA chip by its C-terminal His tag; also called rhTINAGL1; source: bought: Novoprotein (Cat# CB22); not shown: His6, C-terminal, kept
T1 sequence (looked up): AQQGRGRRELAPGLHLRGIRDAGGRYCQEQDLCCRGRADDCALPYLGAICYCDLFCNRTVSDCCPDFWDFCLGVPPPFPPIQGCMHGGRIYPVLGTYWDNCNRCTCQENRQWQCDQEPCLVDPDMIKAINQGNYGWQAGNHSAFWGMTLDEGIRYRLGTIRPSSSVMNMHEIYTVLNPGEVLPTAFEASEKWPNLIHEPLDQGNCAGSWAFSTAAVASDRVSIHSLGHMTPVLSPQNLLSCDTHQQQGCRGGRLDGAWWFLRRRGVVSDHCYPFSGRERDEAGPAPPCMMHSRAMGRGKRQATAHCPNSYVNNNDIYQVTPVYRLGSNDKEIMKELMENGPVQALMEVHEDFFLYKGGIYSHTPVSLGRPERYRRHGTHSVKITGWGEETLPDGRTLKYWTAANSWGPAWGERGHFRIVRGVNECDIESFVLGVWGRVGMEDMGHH
Test: SPR; rhTINAGL1 (C-6×His) immobilised on Ni-NTA chip (Reichert 4SPR, 40 mM nickel sulfate); dilution series of rhPDGF-BB in PBST injected at 62.5 μL/min; association 4 min, dissociation 5 min; TraceDrawer v1.8.1
Details: both partners purified

B1: recombinant human PDGF-BB (platelet-derived growth factor-BB) (ligand, UniProt P01127 82-190, looked up)
chain: SLGSLTIAEPAMIAECKTRTEVFEISRRLIDRTNANFLVWPPCVEVQRCSGCCNNRNVQCRPTQVQLRPVQVRKIEIVRKKPIFKKATVTLEDHLACKCETVAAARPVT
notes: platelet-derived growth factor subunit B, human, recombinant PDGF-BB; also called rhPDGF-BB; source: bought: Peprotech (Cat# 100-14B)
Kd: 185 nM
